Measured values taken from patent US12364734B2, “Methods of treating Alzheimers disease” (NUtech Ventures, priority 2020, dated 2025).

Assays:
[1] = molecular target: T1, Epstein-Barr virus latent membrane protein 1 (LMP1) (Epstein-Barr virus, UniProt P03230); test: LMP1 expression in HEK293 cells co-transfected with P2 peptide (specificity control); assay type: cell-based; conditions: HEK293 co-transfected with LMP1 expression plasmid and P2 peptide with PULSin
T1 construct: expressed in transfected cells; host or cells: HEK293
Excerpt: FIGS. 6A-6B: FIG. 6A. HEK293 cells were transfected with EBV LMP1 expression plasmid or vector control (pcDNA3). One day later, the cells were infected with or without ZIKV overnight as in FIG. 2a. Western blots were used for detection of LMP1 and tubulin simultaneously. The images in the same box indicate they were derived from the same gels. The identity of the proteins is as shown. FIG. 6B. HEK293 cells were co-transfected with different amounts of LMP1 expression plasmid and P2 peptide, or BSA protein ([…]) with PULSin reagents. One day later, the expression of APP and tubulin were examined simultaneously by Western Blot analyses. The identity of the proteins is as shown.
We suspected that the loop in the specific structure of ZIKV E protein was responsible for the potential interaction with APP (FIGS. 1A and 1B). A peptide (P2) derived from the potential binding site, the β-hairpin region, was synthesized with sequence optimization (FIG. 1C). Located in the core region of the ZIKV E protein and being hydrophobic, the eight amino acid stretch, EYRIMLSV, in the β-hairpin region of E protein was not included in the P2 sequence. Furthermore, the P2 peptide could potentially form a similar structure as in the native protein by including extra amino acids in the C-terminus (FIGS. 1B and 1C). […]

[2] = Water solubility of the peptide; assay type: physicochemical
APP [3] = molecular target: T2, APP (Homo sapiens, UniProt P05067); test: P2 effect on APP processing and amyloid formation (Western blot, immunofluorescence); assay type: cell-based
Target sequence in this assay (P05067 18-770, species assumed): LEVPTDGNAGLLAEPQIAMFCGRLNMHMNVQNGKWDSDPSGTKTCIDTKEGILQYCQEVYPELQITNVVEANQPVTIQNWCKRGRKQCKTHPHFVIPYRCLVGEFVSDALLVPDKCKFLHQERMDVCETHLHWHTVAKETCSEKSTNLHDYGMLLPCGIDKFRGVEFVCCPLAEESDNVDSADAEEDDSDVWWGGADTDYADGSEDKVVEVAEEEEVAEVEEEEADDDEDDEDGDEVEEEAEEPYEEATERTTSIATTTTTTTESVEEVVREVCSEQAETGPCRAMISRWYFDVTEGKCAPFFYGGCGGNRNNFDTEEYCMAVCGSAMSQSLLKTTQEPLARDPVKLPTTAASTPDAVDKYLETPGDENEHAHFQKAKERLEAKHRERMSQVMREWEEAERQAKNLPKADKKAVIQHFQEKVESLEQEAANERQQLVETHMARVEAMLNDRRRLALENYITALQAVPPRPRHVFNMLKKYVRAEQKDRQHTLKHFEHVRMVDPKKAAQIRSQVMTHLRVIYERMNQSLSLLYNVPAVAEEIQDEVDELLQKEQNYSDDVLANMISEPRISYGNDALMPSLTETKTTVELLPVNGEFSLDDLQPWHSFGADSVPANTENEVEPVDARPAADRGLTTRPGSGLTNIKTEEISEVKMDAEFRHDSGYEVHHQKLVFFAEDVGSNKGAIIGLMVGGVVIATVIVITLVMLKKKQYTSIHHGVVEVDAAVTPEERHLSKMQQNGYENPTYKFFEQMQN

APP [4] = molecular target: T2, APP; test: APP expression in HEK293 cells with P2 peptide (Western blot); assay type: cell-based; design: expressed in transfected cells; host or cells: HEK293
Target sequence in this assay (P05067 18-695 isoform P05067-4 limits assumed): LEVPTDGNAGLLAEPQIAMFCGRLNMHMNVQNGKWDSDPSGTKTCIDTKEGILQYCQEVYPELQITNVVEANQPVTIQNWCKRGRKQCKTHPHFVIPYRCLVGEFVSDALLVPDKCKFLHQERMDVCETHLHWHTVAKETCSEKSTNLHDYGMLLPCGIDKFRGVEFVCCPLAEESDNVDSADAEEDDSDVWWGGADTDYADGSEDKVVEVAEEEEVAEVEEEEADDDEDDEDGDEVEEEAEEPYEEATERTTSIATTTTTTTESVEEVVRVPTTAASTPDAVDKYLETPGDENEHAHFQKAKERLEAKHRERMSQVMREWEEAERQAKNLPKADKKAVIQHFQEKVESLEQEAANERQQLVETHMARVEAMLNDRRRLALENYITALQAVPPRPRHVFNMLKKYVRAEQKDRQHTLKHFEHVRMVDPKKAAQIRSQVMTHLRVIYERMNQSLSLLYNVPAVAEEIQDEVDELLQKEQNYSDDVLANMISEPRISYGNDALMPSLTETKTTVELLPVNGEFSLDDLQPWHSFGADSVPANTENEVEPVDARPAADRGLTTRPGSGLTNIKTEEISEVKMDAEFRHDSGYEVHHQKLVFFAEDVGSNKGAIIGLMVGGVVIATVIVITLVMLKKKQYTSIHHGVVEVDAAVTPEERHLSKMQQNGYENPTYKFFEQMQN

APP [5] = molecular target: T2, APP; test: APP protein stability assay with cycloheximide (CHX) in HEK293 cells; assay type: cell-based; design: expressed in transfected cells; host or cells: HEK293; conditions: HEK293 co-transfected with APP plasmid plus P2 or BSA; CHX for one hour
Target sequence in this assay (P05067 18-695 isoform P05067-4 limits assumed): as above

T1 sequence (P03230 whole entry): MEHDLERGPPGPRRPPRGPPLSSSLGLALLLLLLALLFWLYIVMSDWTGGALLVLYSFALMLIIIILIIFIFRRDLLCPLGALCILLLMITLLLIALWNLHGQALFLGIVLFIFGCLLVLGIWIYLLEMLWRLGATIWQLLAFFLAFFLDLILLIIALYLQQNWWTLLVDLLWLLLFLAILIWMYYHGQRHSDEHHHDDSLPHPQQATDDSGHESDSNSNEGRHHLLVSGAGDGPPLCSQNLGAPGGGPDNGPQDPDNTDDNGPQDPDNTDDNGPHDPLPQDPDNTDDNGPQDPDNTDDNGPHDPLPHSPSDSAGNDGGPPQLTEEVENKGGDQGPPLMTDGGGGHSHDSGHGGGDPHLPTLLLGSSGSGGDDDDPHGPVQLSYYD

## HGSQHSGMIVNDTGHETDENRAKVEITPNSPRAEATLGGFGSLGL (listed as Zika virus) [P2, peptide derived from the β-hairpin region of ZIKV E protein, without EYRIMLSV stretch]
[1]
  LMP1 expression: could not be enhanced
[2]
  water solubility: water-soluble
APP [3]; Example 4, FIG. 13
  APP metabolic processing: block APP metabolic processing
  interaction with APP: interacts with APP
APP [3]; Western blot (FIG. 13A) and immunofluorescence (FIG. 13B)
  amyloid formation: reduces amyloid formation
APP [4]; HEK293 co-transfected with APP695 plasmid (0.5 μg) and P2 peptide (1 μg) with PULSin, compared with BSA control, one day later
  APP expression: could increase the expression of APP
APP [4]; treating cells directly with peptide (data not shown)
  APP expression: could not enhance APP expression
APP [5]
  mechanism of APP enhancement (APP protein stability): a similar mechanism to ZIKV was established
